# Measurements published in patent US20180282397A1 (UNIVERSITY OF SOUTHERN CALIFORNIA, published 2018).
# Legend:
# [1] = molecular target: T1, H-Ras(G12V)-GTP (Homo sapiens (Human), UniProt P01112 1-166); assay: radioactive in vitro pull-down on Ras-GTP beads (FIG. 6b)
# T1 construct: also called H-Ras(G12V)-GppNHp; active H-Ras(G12V); not shown: avitag and His tag at the 5' (N-terminal) end
# [2] = molecular target: T2, K-Ras(G12V, Y32R) (human, UniProt P01116-2 1-185, limits assumed, biotinylated (pDW363 vector, BirA)); assay: radioactive in vitro pull-down of [35S]Met-labelled RasIn2 on bead-immobilised target [d]
# T2 construct: Made by site-directed mutagenesis of pDW363 K-Ras(G12V); also called Y32R Switch I mutant; Y32R mutation
# [3] = molecular target: T3, Rap1B(G12V)-GTP (Pan troglodytes (Chimpanzee), UniProt A5A6J7 1-166, biotinylated (pDW363 vector, BirA)); assay: radioactive in vitro pull-down of [35S]Met-labelled RasIn2 on bead-immobilised target [c]
# T3 construct: also called Rap1B-GTP
# T3 chain: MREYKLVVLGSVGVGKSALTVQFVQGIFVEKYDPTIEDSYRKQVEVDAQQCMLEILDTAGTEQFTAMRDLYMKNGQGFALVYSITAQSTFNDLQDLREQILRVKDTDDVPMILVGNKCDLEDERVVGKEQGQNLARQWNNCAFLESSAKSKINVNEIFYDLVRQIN
# [4] = molecular target: T4, Arf1-GTP (UniProt P84077 18-179, biotinylated (pDW363 vector, BirA)); assay: as above
# T4 construct: range 18-179
# [5] = molecular target: T5, K-Ras(G12V)-GTP (human, UniProt P79800 1-166 (Meleagris gallopavo entry), biotinylated in vivo on the avitag (BirA)); assay: radioactive pull-down of RasIn1 on Ras-GTP beads; competitor Raf-RBD in molar excess
# T5 construct: Active state: immobilised on neutravidin/streptavidin beads and exchanged with GTP or GTPγS; Same protein as m18, other nucleotide; also called K-Ras(G12V)-GTPγS; K-Ras(GTPγS); not shown: avitag and His tag at the 5' (N-terminal) end
# [6] = molecular target: T2, K-Ras(G12V, Y32R); assay: radioactive in vitro pull-down of [35S]Met-labelled RasIn1 on bead-immobilised target [b]
# [7] = molecular target: T1, H-Ras(G12V)-GTP; assay: ELISA, biotin-labeled H-Ras(G12V)-GppNHp on streptavidin plate, anti-FLAG detection, OD450
# [8] = molecular target: T1, H-Ras(G12V)-GTP; assay: SPR, Biacore T100, biotinylated H-Ras(G12V)-GppNHp on streptavidin chip, MBP-intrabody fusion injected, 25 C
# [9] = molecular target: T1, H-Ras(G12V)-GTP; assay: SPR, KD of RasIn2 against KD of the parent clone RasIn1
# [10] = molecular target: T5, K-Ras(G12V)-GTP; assay: radioactive in vitro pull-down of [35S]-labelled RasIn1 and point mutants on immobilised K-Ras-GTP [a]
# [11] = molecular target: T1, H-Ras(G12V)-GTP; assay: SPR (Biacore T100), H-Ras(G12V) on a streptavidin chip exchanged with GppNHp, maltose binding protein-intrabody fusion injected [e]
binder,measurement,setting,value
"RasIn2 (designed binder, also called Clone 3; radiolabeled RasIn2) MLEVKEASPTSIQISWSIVFGKHDRYYRITYGETGGNSPVQEFTVPGSKSAATISGLKPGVDYTITVYAVTFRWPKRRLVRPISINYRT",% binding (pull-down),[1],> 70%
same,binding result,[2],no binding
same,binding result,[3],no binding
same,binding result,[4],no binding
"RasIn1 (designed binder, also called radiolabeled RasIn1; parental RasIn1 clone) MLEVKEASPTSIQISWGPVFSAYSRYYRITYGETGGNSPVQEFTVPGSKSAATISGLKPGVDYTITVYAVTFRWPMPRLVRPISINYRT",fold decrease of binding with Raf-RBD,[5],12 fold
same,binding result,[6],no binding
"FLAG-tagged RasIn2 (designed binder, not shown: large carriers, also called RasIn2 protein) MLEVKEASPTSIQISWSIVFGKHDRYYRITYGETGGNSPVQEFTVPGSKSAATISGLKPGVDYTITVYAVTFRWPKRRLVRPISINYRT",fold ELISA signal versus Raf-RBD,[7],~10 fold
"RasIn2 maltose binding protein fusion (designed binder, not shown: large carriers) MLEVKEASPTSIQISWSIVFGKHDRYYRITYGETGGNSPVQEFTVPGSKSAATISGLKPGVDYTITVYAVTFRWPKRRLVRPISINYRT",Kd,[8],120 nM
same,fold increase in affinity versus RasIn1,[9],~20 fold
"Clone 2 (designed binder, also called Clone 2 of maturation pool 5) MLEVKEASPTSIQISWEYVFGRHDRYYRITYGETGGNSPVQEFTVPGSKSAATISGLKPGVDYTITVYAVTFRWPKRRLLWPISINYRT",% binding (pull-down),[1],> 70%
"Clone 1 (designed binder, also called Clone 1 of maturation pool 5) MLEVKEASPTSIQISWGRVFSLDSRYYRITYGETGGNSPVQEFTVPGSKSAATISGLKPGVDYTITVYAVTFRWPNPRLVRPISINYRT",% binding (pull-down),[1],> 70%
"RasIn1 S24R (designed binder, [35S]Met radiolabel from in vitro translation; letters unchanged, Radiolabeled point mutant of RasIn1, BC loop) MLEVKEASPTSIQISWGPVFSAYRRYYRITYGETGGNSPVQEFTVPGSKSAATISGLKPGVDYTITVYAVTFRWPMPRLVRPISINYRT",binding result,[10],no binding
"RasIn1 R72A (designed binder, [35S]Met radiolabel from in vitro translation; letters unchanged, FG loop mutant) MLEVKEASPTSIQISWGPVFSAYSRYYRITYGETGGNSPVQEFTVPGSKSAATISGLKPGVDYTITVYAVTFAWPMPRLVRPISINYRT",binding result,[10],no binding
"Clone 4 (designed binder, also called clone 4 of maturation pool 5) MLEVKEASPTSIQISWGSVFRADSRYYRITYGETGGNSPVQEFTVPGSKSAATISGLKPGVDYTITVYAVTFRWPRPRLLWPISINYRT",% binding (pull-down),[1],> 70%
"RasIn1 R77A (designed binder, [35S]Met radiolabel from in vitro translation; letters unchanged, FG loop mutant) MLEVKEASPTSIQISWGPVFSAYSRYYRITYGETGGNSPVQEFTVPGSKSAATISGLKPGVDYTITVYAVTFRWPMPALVRPISINYRT",binding result,[10],no binding
"RasIn1 maltose binding protein fusion (designed binder, not shown: large carriers) MLEVKEASPTSIQISWGPVFSAYSRYYRITYGETGGNSPVQEFTVPGSKSAATISGLKPGVDYTITVYAVTFRWPMPRLVRPISINYRT",Kd,[8],2100 nM
same,Kd,[11],2000 nM
